Data: the supplement of paper PMC7877785
± gives the uncertainty stated by the source.

Assay: self-splicing fitness, log relative to wild type (ln ratio); higher = more splicing; Tetrahymena group I intron in knt gene, E. coli kanamycin selection, DiMSum; sequences stand for … in CUCUCU…GGAGGGAAAAGUUAUCAGGCAUGCACCUGGUAGCUAGUCUUUAAACCAAUAGAUUGCAUCGGUUUAAAAGGCAAGACCGUCAAAUUGCGGGAAAGGGGUCAACAGCCGUUCAGUACCAAGUCUCAGGGGAAACUUUGAGAUGGCCUUGCAAAGGGUAUGGUAAUAAGCUGACGGACAUGGUCCUAACCACGCAGCCAAGUCCUAAGUCAACAGAUCUUCUGUUGAUAUGGAUGCAGUUCACAGACUAAAUGUCGGUCGGGGAAGAUGUAUUCUUCUCAUAAGAUAUAGUCGGACCUCUCCUUAAUGGGAGCUAGCGGAUGAAGUGAUGCAACACUGGAGCCGCUGGGAACUAAUUUGUAUGCGAAAGUAUAUUGAUUAGUUUUGGAGUACUCGUGGUCG
In short: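 DiMSum derived fitness as the error-weighted combination of fold changes across replicates, kanamycin versus no kanamycin, normalised to wild type. E. coli BL21(DE3) held the library, which randomised all eight P1ex-region intron nucleotides within the knt kanamycin-resistance gene on pET-22b(+). Six replicate transformations grew overnight at 37°C or 30°C on LB agar with or without 25 μg/mL kanamycin, also containing 100 μg/mL carbenicillin, 50 μM IPTG and 0.2% rhamnose, and pooled colonies were amplicon-sequenced on an Illumina HiSeq 2500.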

Sequence	self-splicing fitness (ln) (30 °C)	self-splicing fitness (ln) (37 °C)
GCGGAGCAAUAUUACGCAGC	-1.9 ± 0.35	-2.35 ± 0.34
GCGGAGCAAUAUUACGCCCU	-2.95 ± 0.45	
GCGGAGCAAUAUUACGCGCG	-2.77 ± 0.34	-2.83 ± 0.27
GCGGAGCAAUAUUACGCGUU	-2.26 ± 0.24	-1.23 ± 0.22
GCGGAGCAAUAUUACGGAAA		-1.54 ± 0.46
GCGGAGCAAUAUUACGGUGA	-2.38 ± 0.46	
GCGGAGCAAUAUUACGUACG	-2.97 ± 0.28	-2.71 ± 0.44
GCGGAGCAAUAUUACGUACU	-1.85 ± 0.21	-1.46 ± 0.22
GCGGAGCAAUAUUACGUAUA		-2.2 ± 0.44
GCGGAGCAAUAUUACGUCGA	-2.59 ± 0.32	-1.83 ± 0.24
GCGGAGCAAUAUUACGUGUG	-3.19 ± 0.17	-2.77 ± 0.29
GCGGAGCAAUAUUACGUUAU	-3.7 ± 0.19	-2.81 ± 0.15
GCGGAGCAAUAUUACGUUGC	-4.4 ± 0.42	-2.78 ± 0.34
GCGUAGCAAUAUUACGAAUC	-1.05 ± 0.17	-0.37 ± 0.2
GCGUAGCAAUAUUACGAAUU	-1.52 ± 0.1	-0.549 ± 0.12
GCGUAGCAAUAUUACGACAA	-0.888 ± 0.12	-0.789 ± 0.13
GCGUAGCAAUAUUACGAUAG	-2.2 ± 0.26	-1.83 ± 0.34
GCGUAGCAAUAUUACGAUCA	-0.167 ± 0.14	0.0769 ± 0.14
GCGUAGCAAUAUUACGAUCU	-1.34 ± 0.17	-0.0119 ± 0.18
GCGUAGCAAUAUUACGAUGU	-2.18 ± 0.068	-1.15 ± 0.096
GCGUAGCAAUAUUACGAUUU	0.253 ± 0.088	-0.282 ± 0.09
GCGUAGCAAUAUUACGCAAG	-3.32 ± 0.41	
GCGUAGCAAUAUUACGCCAC		-2.26 ± 0.29
GCGUAGCAAUAUUACGCCAG	-3.15 ± 0.41	-2.32 ± 0.37
GCGUAGCAAUAUUACGCCGG	-2.21 ± 0.21	-3.92 ± 0.42
GCGUAGCAAUAUUACGCGCA		-1.07 ± 0.35
GCGUAGCAAUAUUACGCGUU	-1.14 ± 0.19	-1.55 ± 0.22

Sequence	self-splicing fitness (ln) (30 °C)	self-splicing fitness (ln) (37 °C)
GCGUAGCAAUAUUACGGACU	-0.176 ± 0.13	-0.78 ± 0.19
GCGUAGCAAUAUUACGGAGA	-2.63 ± 0.21	-1.87 ± 0.23
GCGUAGCAAUAUUACGGAUG	-1.41 ± 0.16	-1.98 ± 0.18
GCGUAGCAAUAUUACGGCAA	0.755 ± 0.46	-1.01 ± 0.27
GCGUAGCAAUAUUACGGCUU	-1.21 ± 0.11	-0.0921 ± 0.14
GCGUAGCAAUAUUACGUAGA	-3.35 ± 0.19	-2.88 ± 0.29
GCGUAGCAAUAUUACGUCUA	-1.06 ± 0.22	-0.924 ± 0.15
GCUAAGCAAUAUUACGACAA	-1.43 ± 0.18	-2.5 ± 0.2
GCUAAGCAAUAUUACGACAC	-0.804 ± 0.074	0.369 ± 0.11
GCUAAGCAAUAUUACGACGC	-1.52 ± 0.16	-0.603 ± 0.18
GCUAAGCAAUAUUACGAGCU	-2.25 ± 0.33	-0.165 ± 0.31
GCUAAGCAAUAUUACGAGGC	-1.85 ± 0.21	-1.6 ± 0.33
GCUAAGCAAUAUUACGAGUA	-1.73 ± 0.18	-1.31 ± 0.12
GCUAAGCAAUAUUACGAUAC	-1.9 ± 0.12	-0.355 ± 0.11
GCUAAGCAAUAUUACGAUUG	-2.78 ± 0.11	-1.17 ± 0.12
GCUAAGCAAUAUUACGCCUA	-1.55 ± 0.3	-0.198 ± 0.2
GCUAAGCAAUAUUACGCGAG	-2.6 ± 0.13	-1.18 ± 0.14
GCUAAGCAAUAUUACGCUCG	-0.473 ± 0.094	-0.832 ± 0.13
GCUAAGCAAUAUUACGCUCU	-1.11 ± 0.13	0.486 ± 0.15
GCUAAGCAAUAUUACGCUUA	-1.74 ± 0.26	-3.17 ± 0.43
GCUAAGCAAUAUUACGGACU	-1.66 ± 0.12	-0.74 ± 0.14
GCUAAGCAAUAUUACGGAGC		-2.4 ± 0.34
GCUAAGCAAUAUUACGUAGC	-4.22 ± 0.26	-2.16 ± 0.18
GCUAAGCAAUAUUACGUAUG	-2.2 ± 0.1	-1.12 ± 0.14
GCUAAGCAAUAUUACGUGUC	-2.75 ± 0.13	-2.22 ± 0.14
GCUAAGCAAUAUUACGUUAU	-1.7 ± 0.072	-1.48 ± 0.12
GCUAAGCAAUAUUACGUUCU	-1.04 ± 0.052	-0.467 ± 0.066

Sequence	self-splicing fitness (ln) (30 °C)	self-splicing fitness (ln) (37 °C)
GCUCAGCAAUAUUACGAAAG	-1.71 ± 0.11	-1.93 ± 0.13
GCUCAGCAAUAUUACGACCA	-0.232 ± 0.18	-0.532 ± 0.15
GCUCAGCAAUAUUACGACCC	-0.644 ± 0.14	0.378 ± 0.19
GCUCAGCAAUAUUACGAGAA	-0.468 ± 0.12	0.0758 ± 0.099
GCUCAGCAAUAUUACGAUGC	-1.47 ± 0.12	-0.954 ± 0.15
GCUCAGCAAUAUUACGAUUC	-0.0882 ± 0.054	0.832 ± 0.075
GCUCAGCAAUAUUACGCAAC	-1.28 ± 0.16	-1.07 ± 0.2
GCUCAGCAAUAUUACGCAUU	-0.452 ± 0.078	-0.0385 ± 0.1
GCUCAGCAAUAUUACGCCCC	0.441 ± 0.32	-0.222 ± 0.41
GCUCAGCAAUAUUACGCCUA	-0.718 ± 0.23	-0.514 ± 0.22
GCUCAGCAAUAUUACGCGCU	-1.42 ± 0.11	-0.545 ± 0.14
GCUCAGCAAUAUUACGGAAU	-0.424 ± 0.083	0.224 ± 0.12
GCUCAGCAAUAUUACGGCAC	-1.11 ± 0.21	-0.084 ± 0.21
GCUCAGCAAUAUUACGGCUG	-2.99 ± 0.29	-2.1 ± 0.34
GCUCAGCAAUAUUACGGUCG	-2.35 ± 0.14	-0.924 ± 0.14
GCUCAGCAAUAUUACGUAAU	-0.739 ± 0.072	0.436 ± 0.092
GCUCAGCAAUAUUACGUACA	-2.16 ± 0.12	-0.932 ± 0.14
GCUCAGCAAUAUUACGUACC	0.00766 ± 0.067	0.487 ± 0.1
GCUCAGCAAUAUUACGUACG	-1.72 ± 0.11	-0.485 ± 0.09
GCUCAGCAAUAUUACGUCAA	-1.84 ± 0.16	-1.77 ± 0.22
GCUCAGCAAUAUUACGUCAU	-2.27 ± 0.06	-1.26 ± 0.074
GCUCAGCAAUAUUACGUCUU	-0.48 ± 0.054	-0.252 ± 0.066
GCUGAGCAAUAUUACGACAG	-1.05 ± 0.31	
GCUGAGCAAUAUUACGAGCU	-3.66 ± 0.34	-1.82 ± 0.22
GCUGAGCAAUAUUACGAUAU	-2.62 ± 0.28	-1.08 ± 0.2
